Experimental data as given in article PMC8939767 (Science Translational Medicine, 2022).
Where no end group is shown, it is not given here. The star is where a group is joined. Biotin = O=C1N[C@H]2[C@H](CS[C@H]2CCCCC(=O)*)N1

Legend:
[1] = target: T1, HCoV-HKU1 S2 95th 15-mer stem peptide (residues 1231-1245), biotinylated (HCoV-HKU1 isolate N1 (AAT98580.1), UniProt Q5MQD0); assay: ELISA; […], mAb in 1% BSA/PBST, […]; conditions: both partners purified
T1 construct: also called 95th 15-mer peptide; HCoV-HKU1 95th 15-mer stem peptide; source: synthetic peptide (A&A Labs, Synthetic Biomolecules)
T1 chain: Biotin-LSDFESELSHWFKNQ

[2] = target: T2, HCoV-HKU1 soluble spike ectodomain protein (HCoV-HKU1, isolate N1 by the GenBank …, UniProt Q5MQD0); assay: BLI; conditions: both partners purified
T2 construct: also called HCoV-HKU1 soluble spike protein; source: FreeStyle293-F, transfected, purified (Ni-NTA, SEC)

[3] = target: T3, HCoV-HKU1 stem peptide variant, 20-mer with 5 additional residues at the C-terminus (HCoV-HKU1 isolate N1 (AAT98580.1), UniProt Q5MQD0, biotin on the N-terminus); assay: BLI; conditions: both partners purified
T3 construct: also called 20-mer (orange); source: synthetic peptide
T3 chain: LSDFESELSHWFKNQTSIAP

[4] = target: T4, HCoV-HKU1 25-residue S2 stem peptide (residues 1226-1250) (HCoV-HKU1 isolate N1 (AAT98580.1), UniProt Q5MQD0, biotin on the N-terminus); assay: BLI; conditions: both partners purified
T4 construct: also called 25-mer (red); 25-mer S2 peptide from HCoV-HKU1; source: synthetic peptide
T4 chain: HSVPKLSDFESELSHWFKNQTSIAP

[5] = target: T5, HCoV-HKU1 stem peptide variant, 20-mer with 5 additional residues at the N-terminus (HCoV-HKU1 isolate N1 (AAT98580.1), UniProt Q5MQD0, biotin on the N-terminus); assay: BLI; conditions: both partners purified
T5 construct: also called 20-mer (brick red); source: synthetic peptide
T5 chain: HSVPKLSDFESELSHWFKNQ

[6] = target: T6, SARS-CoV-2 S2 stem-helix 25-mer peptide, N-terminal biotinylated (wild type) (SARS-CoV-2, UniProt P0DTC2, biotin on the N-terminus); assay: BLI; […], Octet buffer (PBS plus 0.1% Tween-20), association 120 s, […]; conditions: both partners purified
T6 construct: also called SARS-CoV-2 stem-helix peptide; SARS-CoV-2 stem peptide (25mer); source: synthetic peptide
T6 chain: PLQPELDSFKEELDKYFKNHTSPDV

[7] = target: T7, HCoV-HKU1 spike protein, full length, expressed on 293T cells (HCoV-HKU1, isolate N1 by the GenBank …, UniProt Q5MQD0); assay: flow cytometry on cells; conditions: one partner purified
T7 construct: source: HEK293T, transfected, on the cell surface
T7 sequence (Q5MQD0 13-1356): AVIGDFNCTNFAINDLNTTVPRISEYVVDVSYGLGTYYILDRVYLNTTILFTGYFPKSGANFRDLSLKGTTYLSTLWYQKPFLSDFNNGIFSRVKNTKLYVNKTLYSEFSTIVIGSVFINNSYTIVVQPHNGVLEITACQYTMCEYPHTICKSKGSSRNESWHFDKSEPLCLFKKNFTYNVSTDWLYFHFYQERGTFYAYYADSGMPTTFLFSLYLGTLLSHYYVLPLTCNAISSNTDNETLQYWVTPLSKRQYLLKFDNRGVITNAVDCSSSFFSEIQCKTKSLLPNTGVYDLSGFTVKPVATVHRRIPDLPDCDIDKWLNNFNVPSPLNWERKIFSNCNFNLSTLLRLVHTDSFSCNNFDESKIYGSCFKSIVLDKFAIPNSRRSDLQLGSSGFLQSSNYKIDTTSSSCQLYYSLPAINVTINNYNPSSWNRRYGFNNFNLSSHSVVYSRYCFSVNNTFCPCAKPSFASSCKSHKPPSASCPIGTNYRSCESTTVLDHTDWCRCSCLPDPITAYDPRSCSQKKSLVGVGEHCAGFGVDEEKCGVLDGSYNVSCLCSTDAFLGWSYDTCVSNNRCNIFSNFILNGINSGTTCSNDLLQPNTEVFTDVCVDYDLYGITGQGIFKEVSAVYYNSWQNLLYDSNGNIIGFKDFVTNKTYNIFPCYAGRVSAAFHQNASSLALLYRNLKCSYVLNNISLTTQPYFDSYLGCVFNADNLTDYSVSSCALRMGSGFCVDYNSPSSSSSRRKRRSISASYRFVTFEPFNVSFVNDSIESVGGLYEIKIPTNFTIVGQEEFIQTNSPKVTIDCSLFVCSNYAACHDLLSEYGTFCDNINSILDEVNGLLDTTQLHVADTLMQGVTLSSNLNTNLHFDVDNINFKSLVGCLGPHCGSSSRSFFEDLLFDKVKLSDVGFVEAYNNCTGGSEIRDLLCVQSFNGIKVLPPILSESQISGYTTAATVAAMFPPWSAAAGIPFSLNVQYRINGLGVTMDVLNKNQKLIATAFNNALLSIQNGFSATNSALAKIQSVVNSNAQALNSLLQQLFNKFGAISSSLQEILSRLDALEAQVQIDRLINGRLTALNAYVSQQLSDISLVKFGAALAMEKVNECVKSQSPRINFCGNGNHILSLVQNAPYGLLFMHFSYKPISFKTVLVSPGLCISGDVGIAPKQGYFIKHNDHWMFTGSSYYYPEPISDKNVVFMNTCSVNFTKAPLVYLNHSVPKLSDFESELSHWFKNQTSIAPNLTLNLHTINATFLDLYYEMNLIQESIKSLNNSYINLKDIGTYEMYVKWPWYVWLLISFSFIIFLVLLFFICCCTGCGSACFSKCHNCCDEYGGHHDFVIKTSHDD

[8] = target: T8, SARS-CoV-2 25-mer S2 stem peptide (as used for the crystal and for competition of neutralization) (SARS-CoV-2, UniProt P0DTC2); assay: crystal structure; conditions: both partners purified
T8 construct: also called SARS-CoV-2 S2 peptide; SARS-CoV-2 stem peptide; source: synthetic peptide
T8 chain: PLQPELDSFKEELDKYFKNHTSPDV

Measured: binding result

B1: CC40.8 broadly neutralizing antibody (IgG) (antibody, V domains shown)
VH: EVQLLESGGGLVQPGGSLRLSCAASGFTFSSYVMTWARQAPGKGLEWVSAISGTGYTYYADSVKGRFTVSRDNSKNTLFLQMSSLRAEDTAVYYCAITMAPVVWGQGTTVTVSS
VL: SYELTQPPSVSVSPGQTARITCSGDALPKRYAYWYQQKSGQAPILVIYEDKKRPSGIPERLSGSKSGTVATLTISGAQVEDEADYYCYSTDSSGNHAVFGGGTQLTVL
notes: also called CC40.8 bnAb; CC40.8 mAb
binds: [1] | [2] | [3] | [4] | [5] | [6] | [7]

B2: CC40.8 Fab (Fab, V domains shown)
VH: B1 VH
VL: B1 VL
notes: also called CC40.8 antibody Fab fragment
binds: [8]
